Experimental data from patent US20260167721A1 (ABLEXIS, published 2026).
Positions count from the first letter of the chain named.

B1: CD3 × CD33-BspAb85 (bispecific antibody)
chain 1: EVQLVESGGGLVKPGGSLRLSCAASGFTFSSYSMNWVRQAPGKCLEWVSSISRSSGYIFYADSVKGRFTISRDNAKNSLYLQMNSLRAEDTAVYYCVRERVGAGFDYWGQGTLVTVSSGGGGSGGGGSGGGGSGGGGSNFMLTQPHSVSESPGKTVAISCTRSSGSIASNYVQWYQQRPGSSPTAVIYEDNQRPSGVPDRFSGSIDSSSNSAFLTISGLKTEDEADYYCQSYDSSNRVFGCGTKLTVLDKTHTCPPCPAPEFEGGPSVFLFPPKPKDTLMISRTPEVTCVVVDVSHEDPEVKFNWYVDGVEVHNAKTKPREEQYNSTYRVVSVLTVLHQDWLNGKEYKCKVSNKALPASIEKTISKAKGQPREPQVYTLPPCREEMTKNQVSLWCLVKGFYPSDIAVEWESNGQPENNYKTTPPVLDSDGSFFLYSKLTVDKSRWQQGNVFSCSVMHEALHNHYTQKSLSLSPGK
chain 2: EVQLVQSGAEVKKPGSSVKVSCKASGYTITDSNIHWVRQAPGQSLEWIGYIYPYNGGTDYNQKFKNRATLTVDNPTNTAYMELSSLRSEDTAFYYCVNGNPWLAYWGQGTLVTVSSASTKGPSVFPLAPSSKSTSGGTAALGCLVKDYFPEPVTVSWNSGALTSGVHTFPAVLQSSGLYSLSSVVTVPSSSLGTQTYICNVNHKPSNTKVDKRVEPKSCDKTHTCPPCPAPEFEGGPSVFLFPPKPKDTLMISRTPEVTCVVVDVSHEDPEVKFNWYVDGVEVHNAKTKPREEQYNSTYRVVSVLTVLHQDWLNGKEYKCKVSNKALPASIEKTISKAKGQPREPQVCTLPPSREEMTKNQVSLSCAVKGFYPSDIAVEWESNGQPENNYKTTPPVLDSDGSFFLVSKLTVDKSRWQQGNVFSCSVMHEALHNRFTQKSLSLSPGK
chain 3: DIQLTQSPSTLSASVGDRVTITCRASESLDNYGIRFLTWFQQKPGKAPKLLMYAASNQGSGVPSRFSGSGSGTEFTLTISSLQPDDFATYYCQQTKEVPWSFGQGTKVEVKRTVAAPSVFIFPPSDEQLKSGTASVVCLLNNFYPREAKVQWKVDNALQSGNSQESVTEQDSKDSTYSLSSTLTLSKADYEKHKVYACEVTHQGLSSPVTKSFNRGEC
B2: CD3 × CD33-BspAb86 (bispecific antibody)
chain 1: EVQLVESGGGLVKPGGSLRLSCAASGFTFSSYSMNWVRQAPGKCLEWVSSISRSGTYIYYADSVKGRFTISRDNAKNSLYLQMNSLRAEDTAVYYCARERWELLYFDYWGQGTLVTVSSGGGGSGGGGSGGGGSGGGGSQTVVTQEPSLTVSPGGTVTLTCASSTGAVTSGYYPNWFQQKPGQAPRALIYSTSNKHSWTPARFSGSLLGGKAALTLSGVQPEDEAEYYCLLYYGGAYVFGCGTKVTVLDKTHTCPPCPAPEFEGGPSVFLFPPKPKDTLMISRTPEVTCVVVDVSHEDPEVKFNWYVDGVEVHNAKTKPREEQYNSTYRVVSVLTVLHQDWLNGKEYKCKVSNKALPASIEKTISKAKGQPREPQVYTLPPCREEMTKNQVSLWCLVKGFYPSDIAVEWESNGQPENNYKTTPPVLDSDGSFFLYSKLTVDKSRWQQGNVFSCSVMHEALHNHYTQKSLSLSPGK
chain 2: B1 chain 2
chain 3: B1 chain 3
B3: High affinity Control (Control Humanized anti-CD3 (high affinity) scFv-Fc knob/TM x gemtuzumab) (bispecific antibody)
chain: EVQLVESGGGLVQPGGSLRLSCAASGFTFSTYAMNWVRQAPGKGLEWVGRIRSKYNNYATYYADSVKGRFTISRDDSKNTLYLQMNSLRAEDTAVYYCVRHGNFGDSYVSWFAYWGQGTLVTVSSGKPGSGKPGSGKPGSGKPGSQAVVTQEPSLTVSPGGTVTLTCGSSTGAVTTSNYANWVQQKPGKSPRGLIGGTNKRAPGVPARFSGSLLGGKAALTISGAQPEDEADYYCALWYSNHWVFGGGTKLTVLGGGGSDKTHTCPPCPAPEFEGGPSVFLFPPKPKDTLMISRTPEVTCVVVDVSHEDPEVKFNWYVDGVEVHNAKTKPREEQYNSTYRVVSVLTVLHQDWLNGKEYKCKVSNKALPASIEKTISKAKGQPREPQVYTLPPCREEMTKNQVSLWCLVKGFYPSDIAVEWESNGQPENNYKTTPPVLDSDGSFFLYSKLTVDKSRWQQGNVFSCSVMHEALHNHYTQKSLSLSPGK
heavy: B1 chain 2
light: B1 chain 3
B4: CD3 × CD33-BspAb90 (bispecific antibody)
chain 1: not shown
chain 2: B1 chain 2
chain 3: B1 chain 3
B5: Low affinity Control (Control Humanized anti-CD3 (low affinity) scFv-Fc knob/TM x gemtuzumab) (bispecific antibody)
chain: B3 chain with A113D
heavy: B1 chain 2
light: B1 chain 3
B6: Gemtuzumab (antibody, V domains shown)
VH: EVQLVQSGAEVKKPGSSVKVSCKASGYTITDSNIHWVRQAPGQSLEWIGYIYPYNGGTDYNQKFKNRATLTVDNPTNTAYMELSSLRSEDTAFYYCVNGNPWLAYWGQGTLVTVSS
VL: DIQLTQSPSTLSASVGDRVTITCRASESLDNYGIRFLTWFQQKPGKAPKLLMYAASNQGSGVPSRFSGSGSGTEFTLTISSLQPDDFATYYCQQTKEVPWSFGQGTKVEVKR

Experiments:
Experiment in all cases: cell-based or functional assay
[1] = molecular target: T1, human CD3 (on human Pan-T cells or donor PBMC) (human, UniProt P07766 23-207; P04234 22-171; P09693 23-182; P20963 22-164)
[2] = molecular target: T1, human CD3 (on human Pan-T cells or …); remark: listed apart in the source
[3] = molecular target: T2, CD3 on human donor PBMC / Pan T effector cells (human, UniProt P07766 23-207; P09693 23-182; P04234 22-171; P20963 22-164)
[4] = molecular target: T2, CD3 on human donor PBMC / Pan T …; remark: listed apart in the source

T2 sequence (P07766 23-207, chain 1 of 4): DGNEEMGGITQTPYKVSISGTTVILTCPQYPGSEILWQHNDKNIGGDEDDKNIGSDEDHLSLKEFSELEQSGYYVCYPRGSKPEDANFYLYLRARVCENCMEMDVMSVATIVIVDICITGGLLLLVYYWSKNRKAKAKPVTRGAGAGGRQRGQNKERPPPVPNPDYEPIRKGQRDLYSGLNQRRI
T2 sequence (P09693 23-182, chain 2 of 4): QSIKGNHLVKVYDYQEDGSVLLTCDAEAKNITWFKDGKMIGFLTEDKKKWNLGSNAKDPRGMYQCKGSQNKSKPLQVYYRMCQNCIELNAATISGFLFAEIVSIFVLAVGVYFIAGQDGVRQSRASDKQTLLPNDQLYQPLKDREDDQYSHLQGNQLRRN
T2 sequence (P04234 22-171, chain 3 of 4): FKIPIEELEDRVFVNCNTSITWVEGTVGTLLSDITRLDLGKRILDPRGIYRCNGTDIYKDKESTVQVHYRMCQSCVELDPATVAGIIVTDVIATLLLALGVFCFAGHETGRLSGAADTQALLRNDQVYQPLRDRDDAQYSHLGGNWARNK
T2 sequence (P20963 22-164, chain 4 of 4): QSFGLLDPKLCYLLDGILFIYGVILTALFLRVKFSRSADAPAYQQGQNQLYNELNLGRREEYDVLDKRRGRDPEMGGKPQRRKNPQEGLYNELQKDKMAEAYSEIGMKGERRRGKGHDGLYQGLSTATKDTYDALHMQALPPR
T1 sequence (P07766 23-207, chain 1 of 4): as the sequence (P07766 23-207, chain 1 of 4) above
T1 sequence (P04234 22-171, chain 2 of 4): as the sequence (P04234 22-171, chain 3 of 4) above
T1 sequence (P09693 23-182, chain 3 of 4): as the sequence (P09693 23-182, chain 2 of 4) above
T1 sequence (P20963 22-164, chain 4 of 4): as the sequence (P20963 22-164, chain 4 of 4) above

Row | Binder | Cytokine Release Assay (IFNγ), Donor 0, EC50 [1] [nM] | Cytokine Release Assay (IFNγ), Donor 0, gMFI max [1] [gMFI] | Cytokine Release Assay (IFNγ), Donor 1, gMFI max [1] [gMFI] | Cytokine Release Assay (IFNγ), Donor 2, EC50 [1] [nM] | Cytokine Release Assay (IFNγ), Donor 2, gMFI max [1] [gMFI] | Cytokine Release Assay (IFNγ), Donor 3, gMFI max [1] [gMFI] | RTCC Assay, Donor 0, EC50 [2] [nM] | RTCC Assay, Donor 0, gMFI max [2] [gMFI] | RTCC Assay, Donor 1, EC50 [2] [nM] | RTCC Assay, Donor 1, gMFI max [2] [gMFI] | RTCC Assay, Donor 2, EC50 [2] [nM] | RTCC Assay, Donor 2, gMFI max [2] [gMFI] | RTCC Assay, Donor 3, EC50 [2] [nM] | RTCC Assay, Donor 3, gMFI max [2] [gMFI] | Cytokine Release Assay (TNFα) Donor 0 gMFI max [3] [gMFI] | Cytokine Release Assay (TNFα) Donor 1 gMFI max [3] [gMFI] | Cytokine Release Assay (TNFα) Donor 2 gMFI max [3] [gMFI] | Cytokine Release Assay (TNFα) Donor 3 gMFI max [3] [gMFI] | Cytokine Release Assay (IL2) Donor 0 EC50 [4] [nM] | Cytokine Release Assay (IL2) Donor 0 gMFI max [4] [gMFI] | other results
1 | B1 | 0.0832 | 983000 | 8040 | 0.0468 | 31400 | 104000 | 0.102 | 29900 | 0.006 | 78200 | 0.028 | 64200 | 0.045 | 85600 |  |  |  |  |  |  | 
2 | B2 | 2.35 | 573000 | 4690 | 2.68 | 18500 | 152000 | 1.71 | 24100 | 0.151 | 67300 | 0.697 | 59100 | 1.58 | 83500 |  |  |  |  |  |  | Cytokine Release Assay (IFNγ), Donor 3, EC50 [1]: 7.93 nM
3 | B3 |  |  |  |  |  |  |  |  |  |  |  |  |  |  | 231000 | 113000 | 125000 | 129000 | 0.456 | 377000 | Cytokine Release Assay (TNFα) Donor 0 EC50 [3]: 0.459 nM; Cytokine Release Assay (TNFα) Donor 1 EC50 [3]: 13.1 nM; Cytokine Release Assay (TNFα) Donor 2 EC50 [3]: 5.98 nM; Cytokine Release Assay (TNFα) Donor 3 EC50 [3]: 0.212 nM; Cytokine Release Assay (IL2) Donor 1 EC50 [4]: 1.64 nM; Cytokine Release Assay (IL2) Donor 1 gMFI max [4]: 179000 gMFI; Cytokine Release Assay (IL2) Donor 2 EC50 [4]: 16.7 nM; Cytokine Release Assay (IL2) Donor 2 gMFI max [4]: 121000 gMFI; Cytokine Release Assay (IL2) Donor 3 EC50 [4]: 0.172 nM; Cytokine Release Assay (IL2) Donor 3 gMFI max [4]: 347000 gMFI
4 | B4 | 0.191 | 1.71e+06 | 10800 | 0.126 | 31600 | 513000 | 0.147 | 34800 | 0.012 | 76900 | 0.034 | 62300 | 0.047 | 84000 |  |  |  |  |  |  | Cytokine Release Assay (IFNγ), Donor 3, EC50 [1]: 0.0851 nM
5 | B5 |  |  |  |  |  |  |  |  |  |  |  |  |  |  | 222000 | 82800 | 135000 | 122000 | 2.29 | 24300 | Cytokine Release Assay (TNFα) Donor 0 EC50 [3]: 0.549 nM; Cytokine Release Assay (TNFα) Donor 2 EC50 [3]: 24.6 nM; Cytokine Release Assay (TNFα) Donor 3 EC50 [3]: 40.7 nM; Cytokine Release Assay (IL2) Donor 1 EC50 [4]: 10.8 nM; Cytokine Release Assay (IL2) Donor 1 gMFI max [4]: 18500 gMFI; Cytokine Release Assay (IL2) Donor 2 gMFI max [4]: 15700 gMFI; Cytokine Release Assay (IL2) Donor 3 EC50 [4]: 2.92 nM; Cytokine Release Assay (IL2) Donor 3 gMFI max [4]: 21200 gMFI
6 | B6 |  |  |  |  |  |  |  |  |  |  |  |  |  |  | 5310 | 4430 | 3680 | 3960 | 5.36 | 12500 | Cytokine Release Assay (IL2) Donor 1 gMFI max [4]: 12900 gMFI; Cytokine Release Assay (IL2) Donor 2 gMFI max [4]: 10700 gMFI; Cytokine Release Assay (IL2) Donor 3 gMFI max [4]: 12200 gMFI
